# Tests used:
# [1] = tested on: human patient at risk of developing coronary heart disease; experiment: Prevention of coronary heart disease (Example 18); type: in vivo; details: alone, concurrently or sequentially with a statin
# Excerpt: A human patient at risk of developing coronary heart disease is identified. […] At periodic times during the treatment, the human patient is monitored to determine whether the patient's total serum cholesterol level changes.
# [2] = Osmolality of 21B12 formulations; type: physicochemical
# Excerpt: In certain embodiments, the pharmaceutical formulation is isotonic with an osmolality ranging from between about 250 to about 350 miliosmol/kg, e.g., about 250 mOsm/kg, about 260 mOsm/kg, about 270 mOsm/kg, about 280 mOsm/kg, about 290 mOsm/kg, about 300 mOsm/kg, about 310 mOsm/kg, about 320 mOsm/kg, about 330 mOsm/kg, about 340 mOsm/kg, or about 350 mOsm/kg, and including all values in between. As used herein, “osmolality” is the measure of the ratio of solutes to volume fluid. In other words, it is the number of molecules and ions (or molecules) per kilogram of a solution. Osmolality may be measured on an analytical instrument called an osmometer, such as Advanced Instruments 2020 Multi-sample Osmometer, Norwood, Mass. The Advanced Instrumetns 2020 Multi-sample Osmometer measures osmolality by using the Freezing Point Depression method. The higher the osmolytes in a solution, the temperature in which it will freeze drops. Osmolality may also be measured using any other methods and in any other units known in the art such as linear extrapolation.
# [3] = tested on: cynomolgus monkeys; experiment: Serum lipids after single subcutaneous dose in cynomolgus monkeys (Example 36); type: in vivo, cynomolgus monkey; details: 0.5 mg/kg single SC
# Excerpt: Briefly, naive male cynomolgus monkeys were acclimated to their environment for at least 2 weeks prior to experimentation. Animals were randomized into treatment groups based on a pre-screen of their serum TC, HDL-C, LDL-C, and triglyceride levels, and their body weight. After 1 week, animals were fasted overnight, and bled from the peripheral vasculature (cephalic or saphenous vein), for measurement of baseline serum lipid levels at a time point designated T=0. […] Fasting blood samples were then collected from animals at designated time points over a 45 day period.
# At specified time points, blood was collected from animals under overnight fasting conditions from the peripheral vasculature (cephalic or saphenous vein). Whole blood was allowed to coagulate for 30 minutes at room temperature. Following centrifugation at 3,000 rpm for 20 minutes, serum was collected. Direct serum cholesterol analysis was performed using the Cobas Integra 400 analyzer (Roche Diagnostics Inc, Indianapolis, Ind.). Apolipoprotein B serum levels were determined at specified time points (day 0, 3, 6, 15, 24 and 33) by Anilytics, MD, with the following methodology. A 17 μL aliquot of the sample (no preparation) was used for analysis with a Hitachi 717 Analyzer using a 6 points standard curve. If the initial value of the sample was higher than the standard curve linearity, then the sample was diluted and repeated with the result multiplied by the appropriate dilution factor. The reagents for the assay (APO-B Reagent Kit #86071, Antibody Set #86060, Control Set #86103) were obtained from DiaSorin (Stillwater, Minn.).
# A statistical model that considers baseline as a covariate and treatment group as a fixed effect was fit to the log transformed response at each time point for LDL-C, HDL-C, TC, and triglycerides. Tukey's multiple comparison correction was applied to adjust the pair wise comparisons at each time point. The statistical significance was evaluated at alpha=0.05 using adjusted p-values.
# [4] = Pharmacokinetics in cynomolgus monkeys; type: in vivo, cynomolgus monkey; details: 0.5 mg/kg single SC
# Description: Antibody concentrations in serum were determined using an enzyme-linked immunosorbent assay (ELISA) with an assay range of 34.4 to 3000 ng/mL (34.4 ng/mL being the lower limit of quantitation [LLOQ]).
# Non-compartmental analysis (NCA) was performed on the serum concentrations using the pre-determined nominal time points for each subject using Watson® LIMS, version 7.0.0.01 (Thermo Scientific, Waltham, Mass.). Data points for estimating the terminal elimination rate constants and half-lives were chosen by visual inspection of the concentration-time profile and best linear fit (typically from 360 h until the antibody concentrations dropped below the lower limit of quantitation).
# NCA parameters reported include: terminal half-life (t1/2,z), the maximum serum concentration (Cmax), area under the serum concentration-time curve from time zero to infinity (AUC0-inf), and apparent serum clearance (CL/F). AUC0-inf was calculated using the linear log-linear trapezoidal method. All parameters were all reported to three significant figures, except for half-life which was reported to two significant figures.
# [5] = biological target: human PCSK9 (Homo sapiens, UniProt Q8NBP7); experiment: BIAcore affinity analysis; type: binding; details: human PCSK9, pH 6.0, n=1
# human PCSK9, sequence (Q8NBP7 153-692): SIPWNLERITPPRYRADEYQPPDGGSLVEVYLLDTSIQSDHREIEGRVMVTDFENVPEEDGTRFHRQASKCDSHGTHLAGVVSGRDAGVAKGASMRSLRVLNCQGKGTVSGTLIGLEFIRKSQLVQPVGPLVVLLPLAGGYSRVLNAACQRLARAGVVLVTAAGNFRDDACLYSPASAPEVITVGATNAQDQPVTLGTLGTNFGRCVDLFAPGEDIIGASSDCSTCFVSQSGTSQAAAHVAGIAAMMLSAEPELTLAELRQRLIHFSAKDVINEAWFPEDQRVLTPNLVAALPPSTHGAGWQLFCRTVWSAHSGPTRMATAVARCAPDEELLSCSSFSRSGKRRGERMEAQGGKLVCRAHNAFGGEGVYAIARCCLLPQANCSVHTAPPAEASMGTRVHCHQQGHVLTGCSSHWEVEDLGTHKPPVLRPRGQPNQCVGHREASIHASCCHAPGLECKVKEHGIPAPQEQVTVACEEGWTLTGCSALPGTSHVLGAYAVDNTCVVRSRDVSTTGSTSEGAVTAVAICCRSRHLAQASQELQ
molecule,measurement,setting,value
"21B12: human anti-PCSK9 monoclonal antibody; light/heavy variable region SEQ ID NO 23/49 (antibody, listed as Homo sapiens, V domains shown) VH: QVQLVQSGAEVKKPGASVKVSCKASGYTLTSYGISWVRQAPGQGLEWMGWVSFYNGNTNYAQKLQGRGTMTTDPSTSTAYMELRSLRSDDTAVYYCARGYGMDVWGQGTTVTVSS VL: QSALTQPASVSGSPGQSITISCTGTSSDVGGYNSVSWYQQHPGKAPKLMIYEVSNRPSGVSNRFSGSKSGNTASLTISGLQAEDEADYYCNSYTSTSMVFGGGTKLTVL",serum cholesterol vs patients not receiving the treatment,[1],reduced serum cholesterol
same,Osmolality (mOsmol/kg),"[2]; 21B12 73 mg/mL, 10 mM Na acetate, pH 5.2 +3% proline",253 mOsmol/kg
same,Osmolality (mOsmol/kg),"[2]; 21B12 76 mg/mL, 10 mM Na acetate, pH 5.2",53 mOsmol/kg
same,Osmolality (mOsmol/kg),"[2]; 21B12 116 mg/mL, 10 mM sodium acetate, pH 4.8, 50 mM methionine + 2% benzyl alcohol",329 mOsmol/kg
same,Osmolality (mOsmol/kg),"[2]; 21B12 116 mg/mL, 10 mM sodium acetate, pH 4.8, 150 mM arginine",241 mOsmol/kg
same,Osmolality (mOsmol/kg),"[2]; 21B12 116 mg/mL, 10 mM sodium acetate, pH 4.8, 1.5% proline + 1% benzyl alcohol",277 mOsmol/kg
same,Osmolality (mOsmol/kg),"[2]; 21B12 116 mg/mL, 10 mM sodium acetate, pH 4.8, 2% proline + 1% benzyl alcohol",313 mOsmol/kg
same,Osmolality (mOsmol/kg),"[2]; 21B12 116 mg/mL, 10 mM sodium acetate, pH 4.8, no excipients",72 mOsmol/kg
same,Osmolality (mOsmol/kg),"[2]; 21B12 117 mg/mL, 10 mM Na acetate, pH 4.5",59 mOsmol/kg
same,Osmolality (mOsmol/kg),"[2]; 21B12 122 mg/mL, 10 mM Na acetate, pH 5.2 +3% proline",274 mOsmol/kg
same,Osmolality (mOsmol/kg),"[2]; 21B12 130 mg/mL, 10 mM Na acetate, pH 5",59 mOsmol/kg
same,Osmolality (mOsmol/kg),"[2]; 21B12 148 mg/mL, 10 mM Na acetate, pH 5.2 +3% proline",301 mOsmol/kg
same,Osmolality (mOsmol/kg),"[2]; 21B12 […], 10 mM Na acetate, pH 4",59 mOsmol/kg
same,Osmolality (mOsmol/kg),"[2]; 21B12 […], 10 mM Na acetate, pH 5.2 +150 mM NaCl",346 mOsmol/kg
same,Osmolality (mOsmol/kg),"[2]; 21B12 […], 10 mM Na acetate, pH 5.2 +3% proline",252 mOsmol/kg
same,Osmolality (mOsmol/kg),"[2]; 21B12 […], 10 mM Na acetate, pH 5.5",64 mOsmol/kg
same,Osmolality (mOsmol/kg),"[2]; 21B12 […], 10 mM Na acetate, pH 5.5 +150 mM methionine and 3% benzyl alcohol",520 mOsmol/kg
same,LDL-C returned to levels similar to control animals by day,[3],≤ 6 days
same,TC returned to levels similar to control animals by day,[3],≤ 4 days
same,maximal lowering of LDL-C as compared to anti-KLH IgG2 control antibody-treated monkeys,[3],64%
same,maximal lowering of TC as compared to control animals,[3],20%
same,time of maximal LDL-C lowering after injection,[3],3 days
same,time of maximal TC lowering after injection,[3],3 days
same,HDL-C levels,[3]; 45 day study,"lowered HDL-C at a single time point, 18 days after injection"
same,triglycerides levels,[3]; 45 day study,No statistically significant changes
same,HDL-C or triglyceride levels vs anti-KLH IgG2 control antibody-treated monkeys,[3]; alpha=0.05,statistically significant change in HDL-C at a single time point (day 18 following injection)
same,serum ApoB levels vs anti-KLH IgG2 control antibody-treated monkeys,"[3]; days 3, 6, 15, 24 and 33",statistically significant lower ApoB levels at day 3 only
same,maximal lowering of LDL-C (vs anti-KLH IgG2 control antibody at the same time point),[3]; printed as negative change,−64%
same,half-life,[4],~40 h
same,Kd,[5],7.3 pM

# From patent publication US20140004122A1, “METHODS FOR TREATING OR PREVENTING CHOLESTEROL RELATED DISORDERS” (AMGEN INC., priority 2011, published 2014)
